From the DeepSol protein solubility set

Experiment: soluble on expression in E. coli; label from the status in PepcDB or PDB records

Row | Sequence | soluble on expression in E. coli
1 | MSLTGKKIETHLEDMVAQANAQLKLTAPESNLEVSYQNYHRGVFSSQLQLLVKPIAGKENPWIKSGQSVIFNESVDHGPFPLAQLKKLNLIPSMASIQTTLVNNEVSKPLFDMAKGETPFEINSRIGYSGDSSSDISLKPLNYEQKDEKVAFSGGEFQLNADRDAKPSPFPGRRKVVRIDAVNEYNQKVQLTFNNLKTDGSSTLASFGERVGNQKLSLEKMTISVEGKELALLEGMEISGKSDLVNDGKTINSQLDYSLNSLKVQNQDLGSGKLTLKVGQIDGEAWHQFSQQYNAQTQALSRQPEIANNPELYQEKVTEAFFSALPLMLKGDPVITIAPLSWKNSQGESALNLSLFLKDPATTKEAPQTLAQEVDRSVKSLDAKLTIPVDMATEFMTQVARKVIRKIKRKNWRNSKLKVHQQWGRCSVEGHHHHHH | not soluble
2 | MATIDSMNKDTTRLSDGPDWTFDLLDVYLAEIDRVAKLYRLDTYPHQIEVITSEQMMDAYSSVGMPINYPHWSFGKKFIETERLYKHGQQGLAYEIVINSNPCIAYLMEENTITMQALVMAHACYGHNSFFKNNYLFRSWTDASSIVDYLIFARKYITECEERYGVDEVERLLDSCHALMNYGVDRYKRPQKISLQEEKARQKSREEYLQSQVNMLWRTLPKREEEKTVAEARRYPSEPQENLLYFMEKNAPLLESWQREILRIVRKVSQYFYPQKQTQVMNEGWATFWHYTILNHLYDEGKVTERFMLEFLHSHTNVVFQPPYNSPWYSGINPYALGFAMFQDIKRICQSPTEEDKYWFPDIAGSDWLETLHFAMRDFKDESFISQFLSPKVMRDFRFFTVLDDDRHNYLEISAIHNEEGYREIRNRLSSQYNLSNLEPNIQIWNVDLRGDRSLTLRYIPHNRAPLDRGRKEVLKHVHRLWGFDVMLEQQNEDGSVELLERCPPRMGNL | not soluble
3 | MPRPRVLLLGDPARHLDDLWSDFQQKFEVIPANLTTHDGFKQALREKRYGDFEAIIKLAVENGTESYPWNADLISHLPSSLKVFAAAGAGFDWLDLDALNERGVAFANSRGAGDTATSDLALYLILSVFRLASYSERAARTGDPETFNRVHLEIGKSAHNPRGHVLGAVGLGAIQKEIARKAVHGLGMKLVYYDVAPADAETEKALGAERVDSLEELARRSDCVSVSVPYMKLTHHLIDEAFFAAMKPGSRIVNTARGPVISQDALIAALKSGKLLSAGLDVHEFEPQVSKELIEMKHVTLTTHIGGVAIETFHEFERLTMTNIDRFLLQGKPLLTPAGKVFAPSSAA | soluble
4 | MSLSDWIDASFTTKQTDAAKSSSQTKPKSVNQVKLDVPLVNQMTTPRLYNGCEVTSLTMLMNYAHINVTKNELAAKITSVPLTYSDGEHGNPEYGFVGDITGNDPGLGVYHKPIYKLAKTETSQVKDLTGANFDTVIEQLEQGRPVWTITTASFAPVSTMQTWQTPQGSVKVTYDMHSVVIVGFNRTKKLIYINNPYGEKQQAVSWKNFEAAYNQMGKQAIVLTLPHEGHHHHHH | soluble
5 | ESKSPIIQNVLSYITEHFSEGMSLKTLGNDFHINAVYLGQLFQKEMGEHFTDYLNRYRVNYAKEELLQTKDNLTIIAGKSGYTDMAYFYRQFKKHTGETPNRYRKIHQ | soluble
6 | MGSDKIHHHHHHMDDYGYRALPDALGTTYGSYLSAKSASGRYTVYVGANDGMLHAFDAGMTADGSMDASGGLERFAYIPATALGHMGNLLLPSDPTNRTTEYEHRYYVDGPVVVGDANYAGSWKTVVVGAAGAGGRSIFALDVTNPSNFSTSSKLWEISDLDSSLSTAIRNNIGHVLGKPVIVPVKNAAGAVTWKAIFGNGYNSRNGKAVLFVVDIKTGAPAVTMIEATETGSTIAGSNGLGNIVVVDRWGGASQTDGVRDGYADTVYGADQKGAIWKFDLRSSAASVTVPFFTTRTSVESGQTYRQPITGGLVATAGDAGGVMLFFGTGSFSFESDPKDEAIQSLYGVNDTVRGAPLTTATRANLRGSTVVQDGDRTLSRAAAPANSQGWYVDLPAKERMVGSPSIASGIVFIPTYTPAVVSSGCKPDGANWLFGLDTRTGDGALMDARKGSPTGASFASRTAATPLTTSGNAPVKDVGVSAIPRLSPAESGSAPGGQACWMVVTAAGSGPLYIPYPCGRQSWRQVQ | not soluble
7 | MAHHHHHHMLRRHFQLFLRRTPLWLADDGSSLFERYTEIENSNERRMSALKACGMFDDEWIATEKVHGANFGIYSIEGEKTIRYAKRSGIMHPTEHFFGYHMLVPQLQQYITVTREMLCDKLQKKLHTVLINGELFGGKYDHPSLQKTRKTVMVAGKPRTISAVQTDSFPQYSPDLHFYAFDIKYKETNEAEYVTLTFDDATELFKRVPGLLYARAIIRGPMSKVAAFDVEHFVTTIPPLVGMGNYPLKGNWAEGLVVKHAKRGTPGFDPKGLTILKFKCTAFQEISTDRRQGPRVDEMESVRRDSISRSGIQLPALESIIHDPVQLEASKFLLDHICENRLNAVLSKIGTDPFEKQEMTPDDLATLLAKDALKDFLKEAEPAIVNTPILTRRDMARYVLFESRQLVCSRWKAILQRQTADVVE | not soluble
8 | MIPIERHQKILALVAERGVVSIAELTERLGVSHMTIRRDVQKLEEQGAVLSVSGGVRSTQRLAIEPSHQDKTMMFSRQKQAIGTSAALHIPRNSCIYLDAGTTTLALARQLEDRDDLLVVTNDFVIANFLIESSQCRMIHSGGTLCRKNRSCIGEAAAHSLRNLSIDIAFISASCWGLRGISTPDEDKVPVKRAISEASSKRVLLADASKYGKVATYLALPLTAFDVVITDNSLSSTVYEELAEKALELIIASPPR | not soluble
9 | MLMTIDISEESLAKESADLLKILLKDRTTKKSIVWATHSYELLGKGFAPSDRINPSKVTGNFANLIQPRSEKSKYEQKDRTKIRAEVFTPTWLVAKQNGYVESKLGSLSLEEYVDLRWLEVTCGEAPYMVTRYDTVTGEEIPLSERVGFVDRKLQRISREVSDEVTFYKLVKDAYHASYGYEYQGDSLLLARENLLATFEDYYLAKTGNQPTLEQKKEIATIISYNVFQMDGLKKSSPYSAKQKQSQQLSLFADELEVQEVEESKTHIKDWKKNRMIGFERLSSEESEMKFDVVIGNPPYQETGEARDEPIYHYFIDEAYKIADKSILITPARFLFKAGQTPKNWMEKMLEDKHLKVQFYELKSGKVFTGTDIKGGVAITYRDVDKDLGPIGVFTIFETLNGIVKKIEKHPEFETFSDLVYPQGIYRFSNKLFSDYPNAEKLQGKGTKNKIVSKSLTQLDFVFKNNEEKDHVALLGRIGSERVYRYINKKYLDLPETFENYNVFVPEANGSGALGEVLSTPLIGEPLIGHTDTFLSIGNFKTKFEADACIKFIKTKFARVLLGVLKVTQHNSRKTWYYVPLQDFTVNSDIDWTQSVTDIDRQLDQKYDLSPEEIAFIENHVREMD | not soluble
10 | MLELFLKEEWTTEAKEILRPFGQKKLIGIQMGASNRSRQWFVERWIELAKRIIERDEEVVIVFVGSKNELEEISLVAQALPQDRVFISAGRLSLGAAAALIGELGLLFTPDTGPLHIAVALRVKTISLFAVANPKNSLPDYDQSLHRYIKVDRCCEPCVGKRCAYQKCMEAIGVDEVYEEYKKLQELEHHHHHH | soluble
11 | VKLLTDLFKAGLRTPSTDQIQKISMELSFYGKIESKNVFYWFQNHKARERQKCRKISTVKFDHRQDTDLSKPRRDNVRRHQLPAKG | not soluble
12 | MENFIDTLENWRDQKQIISVICKDGIKIDDSIITSFKASKDVGISNGLRIQLTFQEINFKAIVGQTDVSAATGRTSTTNDGGATSKKNTGNTTTSLGSPMLTCKELFSYSASELSDEALKARVTCSKSVSVKNGESTFTA | not soluble
13 | MDNSSQSKPSSSSSSHSPSPAAITPTQRTTRDSGLCSTIDIPEIQAQCIDNLNSHYLGKGTYGLVEKTRYRKTRQDDFRPAAIKYSSQLHMATLIREAKVMWDLRNHPNIIKIYGLYKSPRNGQGVVMEYMDCGSMADLLYDRTHINYTIDHVASWMFQLSSAVDFFHSNSQVHRDLKLQNMLLSDRYRTMKLCDFGTFTSMHQSMTSNRGTPITMAPEVFRCEQYNMKSDIYSIGIIMWQIIARNHPYRRDLSVPGLLYNVATANLRPQELECNPILSEFYKKCWNDNADIRPTSSECVEYFTLLKDEYPNGSVPLSDSSTNGPAETPPPHAHRPTMLGTSSGSGIGSNNRTPTASKLLNPQQPGQGHRRNRSETFVVQPDLPYPTVPGEAGASRIPKSQSEAKNFRDRAKSEQRQPHRDARPPPPFEHRRDSNDEEKHAVFMNICSNEETRPIDPDTRDEKSLEIFHQHCDNNKQYADAWVIKKEVMRAKHELIAQWPQHDHTVELLERKYYLEQEIARYRDIQDDNYFSTERM | not soluble
14 | MLAGLGEGGRVYIADLAIGPVALRDDGSIEEYELFPRSVDEAVTEALRLEEEGFTLAHEKLGKKLVESGVGSLVVESEDTARHFSKLGLSVKVEPGNNVALSARERLVSLGVELGFFGSEDDALSWLYEVEVEYTRRKLRGAAQKRDMLAAQAIRAIDDIDKTVNLFVARLREWYSIHFPELNDLVREHEDYVKIVSAVGHRDNITVERLVDLGFSEEKARRIAEAAKQSIGADLSEIDIQAVQTLARITSELYQLRRRLTEYIEQVMNEVAPNITALVGPLLGARLISLAGGLDKLARMPASTIQVLGAEKALFRALRTGGKPPKHGIIFQYPDIHRSPKWQRGKIARALAAKLAIAAKVDAFTGRFIGDKLREELRRRIAEIKKIYAKPPKRKREEKPPQPRRARPPRRGRPPRRRRGGRRLEHHHHHH | soluble
15 | MTEHKSGFVSIIGRPNVGKSTFVNRVIGHKIAIMSDKAQTTRNKIQGVMTRDDAQIIFIDTPGIHKPKHKLGDYMMKVAKNTLSEIDAIMFMVNANEEIGRGDEYIIEMLKNVKTPVFLVLNKIDLVHPDELMPKIEEYQSYMDFTEIVPISALEGLNVDHFIDVLKTYLPEGPKYYPDDQISDHPEQFVVGEIIREKILHLTSEEIPHAIGVNVDRMVKESEDRVHIEATIYVERDSQKGIVIGKGGKKLKEVGKRARRDIEMLLGSKVYLELWVKVQRDWRNKVNFIRQIGYVEDQD | not soluble
16 | MGSDKIHHHHHHMALVKLQPGDITSDDPIPFPIYSADGKLLLQEGQSVTTSSLLDRLYDLGYRKSTEKVRSGPFNPVSHAPQVNTELLISSAHAHEKALPKPEAISGRSMNVLPTLKHRVEFFRLTPAGGSEAIHVDLVGVVHEKTIIVRSTGPDESVVLDPEHSYQAKLFTGSHLSTFSTRLTPDGVGPFGCYYLEYPDNLIHATVRKHRRVTTSFPAKLQSGEYQRASVDVTVSNISLIGAGVSSSVDFLTVGQSARLSMNLSVAQRVRPVEVYVEVRNRREKDGGFFYGLEFVRVSDEVRLEIKDFVLDSLATL | not soluble
17 | GPGSMKVGNRDYDPCVKVSLELESLLQHHFQQRQHSKRILKDRLRKAELEIAYLQQSVSAYSEELRVERLKFDTLQRTMEDSKRNHAAELMEQDKIIRDRMCNVDTQARLLVVKTEECERRAQCLQKQEEELLNREKELRFYQASFEAGIMPAQRQIEAERVRMLRAREKAEELLEEARISALATEERRKKLEALHNLEMQFFALEKEEATQRIQIMRQEIFGLVGLISFRRTHVSAAEGDAAKRIRLLEEELASKKEVFELREKEVYLRYQREEQRMRDERKRIISIKEAMRQDYRLVLEGIRLFGNEYSTEPDQLQVDALKDLEKLLFSALDDHQLEITKKL | soluble
18 | GSMTGKSVKDVDRYQAVLANLLLEEDNKFCADCQSKGPRWASWNIGVFICIRCAGIHRNLGVHISRVKSVNLDQWTQEQIQCMQEMGNGKANRLYEAYLPETFRRPQIDPAVEGFIRDKYEKKKYMDRSLDINA | soluble
19 | MLQNSRIKMNPKKLYQADGHAVQELLPAMKILYQAKAEDPNTDNSPKWTQVKNKLSSKMQEVRITRQLSSQLPETGALLSELLSRQEFISQQHERAASRAVPLAEAEKVLQATVQNIAQETEQLSNKLNNVASDEAELDEKIERKKREYEQLQKRFAKLQSFRPQYMDEYERFEERLKKLYEVYVLNFRNLSYLRKVHDDLARSERQRQEELEKAMRMAVEKMRLEQEKKDAIGLHDDDGSDAPLVDRRQSVRKVYGNMMGGDASDDDEDDEDDEDDEIIRMDDNVAQHHKRELHRQEEDEERSEADYMVGITTAHVADDAKSDLSSGDDF | not soluble
